According to US20250042990A1 (Eli Lilly, published 2025):

Experiments:
human IL-1β [1] = target: T1, human IL-1β (human, UniProt P01584 117-269); assay: cell-based or functional assay
human IL-1β [2] = target: T1, human IL-1β; assay: MSD-SET (solution equilibrium titration, electrochemiluminescence), 37° C., 72 h equilibrium
Experimental: MSD (Meso Scale Discovery) electrochemiluminescence assay is utilized to measure the affinity of Antibody I, Antibody II, Antibody III, and Canakinumab to human IL-1β. First, the equilibrium mixture of antibodies and human IL-1β is set up; in the mixture the antibody concentrations are kept constant at 1 pM, 10 pM, and 100 pM whereas the ligand is titrated in the concentration ranging from 0.9 nM to 0.00004 nM (2.5 times dilution between concentrations). The equilibrium mixture is set up in sealed non-binding 96-well plate at 37° C. for 72 hours.
MSD Gold Streptavidin plates are used to detect the free antibodies in the equilibrium mixture. The MSD plates are first blocked with blocking buffer (PBS+1% BSA) for 1 hour on a shaker set at 800 rpm and then washed 3 times with washing buffer PBST (PBS+0.05% Tween 20). The plates are coated with biotinylated human IL-1β followed by 3× washing with PBST. The equilibrium mixtures are added to the coated plate, incubated at room temperature with shaking for 2.5 mins and immediately washed 3× with PBST. The goat anti-human Sulfo-TAG antibody is added to the plate and incubated at room temperature for 1 hour with shaking. After three more washes, MSD Read Buffer at 1:2 concentration diluted in MilliQ water is added to the wells. Immediately afterwards, the plates are read using an MSD Sector Imager SI6000 instrument.

B1: Canakinumab (antibody, human IgG4 S228P, kappa, F234A L235A, V domains shown)
VH: QVQLVESGGGVVQPGRSLRLSCAASGFTFSVYGMNWVRQAPGKGLEWVAIIWYDGDNQYYADSVKGRFTISRDNSKNTLYLQMNGLRAEDTAVYYCARDLRTGPFDYWGQGTLVTVSS
VL: EIVLTQSPDFQSVTPKEKVTITCRASQSIGSSLHWYQQKPDQSPKLLIKYASQSFSGVPSRFSGSGSGTDFTLTINSLEAEDAAAYYCHQSSSLPFTFGPGTKVDIKR
notes: Comparator
With B1 the “Avg. IC50, neutralization of human IL-1β (4 pM) in HEK-Blue IL-1β SEAP reporter cells” value (human IL-1β [1]) was 26 pM and the Kd (human IL-1β [2]) was 13.5 pM.
